Data published in the supplement of paper PMC9170038.

Test system: MS2 coat protein
Assay: apparent KD of MS2 coat protein; designed switch direction (-1 OFF switch, 1 ON switch): -1; higher = weaker reporter binding
Procedure, shortened: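 Designed RNA switches sharing common flanks were transcribed on Illumina chips by stalled E. coli RNA polymerase. They were titrated with SNAP-549-labelled MS2 coat protein, from 0.7 or 1.5 nM doubling to 3 µM, in Tris-HCl pH 7.5 buffer with KCl, MgCl2, BSA, DTT, tRNA and Tween-20. Titrations ran without input, with 200 uM small-molecule ligand, or with an oligonucleotide input. The apparent KD of each design is the median over its clusters, after curve-fitting of normalised cluster fluorescence.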

[1] = Eterna round: R95, input ligand: microRNA oligo, concentration not stated
[2] = Eterna round: R95, input ligand: FMN 200 uM
[3] = Eterna round: R95, input ligand: none
[4] = input ligand: microRNA oligo, concentration not stated

Sequence | apparent KD of MS2 coat protein [1] [nM] | apparent KD of MS2 coat protein (input ligand: FMN 200 uM) [nM] | apparent KD of MS2 coat protein (input ligand: none) [nM] | also measured
CCGAUAAUGUAGGAUAUCGUAUCGGAAACGAUACGAGAAGGACAAACAUGAGGAUCACCCAUGUUCCUUAACGG [Mat - Exclusion 6 - Eli Mod - D73] (puzzle: Exclusion 6) | 15 |  |  | 
CCGAUGUGAGGAUAUACACUAGGGUGCGUAUACGUGAGCAAACAUGAGGAUCACCCAUGUAGAAGGCACUGAAA [Eternabot (Original) Solution 50] (Eterna round: R97, puzzle: Exclusion 2) |  | 117 | 30.9 | 
CCGCAAAAGCAGGAUAUCGUAUCGGAUACGAUACGAGAAGGGUUUACAUGAGGAUCACCCAUGUUCCUUAGCGG [Fiskers Ex 6 - 32] (puzzle: Exclusion 6) | 26.8 |  |  | 
CCGCAUAAGCAGGAUAUCGUAUCGGAGACGAUACGAGAAGGGUUAACAUGAGGAUCACCCAUGUUCCUUAACGG [Mat - Exclusion 6 - Eli Mod - D99] (puzzle: Exclusion 6) | 14.1 |  |  | apparent KD of MS2 coat protein [2]: 19.7 nM; apparent KD of MS2 coat protein [3]: 18.1 nM
CCGCCAUGAGGAUAUCCAUCUGGAUCAGACAAGAUCCUGAUGGAGAAGGGACAUGAGGAUCACCCAUGUUGCGG [Mat - Exclusion 4 - Eli Mod - D55] (Eterna round: R97, puzzle: Exclusion 4) |  | 60.4 | 60 | 
CCGCCGCAAGGAUAUACUUGCGGUGAUGUUCGAGUUCUUCUACUUGAGGAUCACCCAAGUAGAAGGUGCAAAAC [jl-ex2.4.59 ViennaUCT mod] (Eterna round: R97, puzzle: Exclusion 2) |  | 13 | 12.5 | 
CCGCUCCGUGUAGGAUAUCGCUGUACCCUGCGGCGAGAAGGACAUGAGGAUCACCCAUGUAUGUUAUUAUCACGCGUGGCGCAC [Design 72] (Eterna round: R96, puzzle: Exclusion NG 1) |  | 16 | 16.4 | apparent KD of MS2 coat protein [4]: 12.4 nM
CCGCUCCGUGUAGGAUAUUGGCGUGCUCUGCGCCGAGAAGGACAUGAGGAUCACCCAUGUAUGUUAUUAUCACGCGUGGCGCAU [Design 78] (Eterna round: R96, puzzle: Exclusion NG 1) |  | 30.6 | 18.6 | apparent KD of MS2 coat protein [4]: 11.5 nM
CCGGAAGUACAGGAUAUAGGAGUCGAUAGACUCCUAGAAGGGUAUACAUGAGGAUCACCCAUGUGUCCUACCGG [Fiskers Ex 6 - 71] (puzzle: Exclusion 6) | 23.6 |  |  | 
CCGGGCCCGGGAGGAUAUACAUGAGGAUCACCCAUGUGGGCCCGGGCCCGCGGGCCCGGGCCCAUGUAGAAGGCCCGGGCCCGG [-64.8, -64.2 kcal, A 15%] (Eterna round: R96, puzzle: Exclusion NG 2) |  | 50 | 20.4 | apparent KD of MS2 coat protein [4]: 36.4 nM
CCGGGCGCAGGAUAUACGUGGCCCAAAUAAAUAAUAACCACACAUGAGGAUCACCCAUGUAGAAGGGCGCCCGG [-26.59, -25.61 kcal, A 32%] (Eterna round: R97, puzzle: Exclusion 2) |  | 116 | 49.9 | 
CCGGUAGUAGUCAGGAUAUUCGAUUUUCACCAAGCGAAGAAGGGACAUGAGGAUCACCCAUGUUAGGUGAACGG [Eternabot (L2) Solution 68] (Eterna round: R97, puzzle: Brourd's mod of Exclusion 4) |  | 196 | 37.6 | 
CCGUCCUCAGUUAGGAUAUCUUCCGGAGAACGAAAGGAGAAGGAACAUGAGGAUCACCCAUGUGGCCCGAUGGA [Eternabot (Original) Solution 16] (Eterna round: R97, puzzle: Brourd's mod of Exclusion 4) |  | 85.3 | 29.3 | 
CCGUGGCAAGGAUAUACGUAGGAGAGGAAGGCAAGAGAAGGACAUGAGGAUCACCCAUGUAGAAGGUGCAGAUC [JR_Exclu2_Sub030] (puzzle: Exclusion 2) | 48.3 |  |  | 
CCUAGUUGGUAAGGAUAUCCUACAUUAUUCUGACCCGUGCAAGCUACAUGAGGAUCACCCAUGUGGGAGAAGGUGCGUUAACGU [Design 8] (Eterna round: R96, puzzle: Exclusion NG 2) |  | 55.7 | 55.1 | apparent KD of MS2 coat protein [4]: 35.2 nM
CCUCAGUAAGGAUAUCAGCUUAUAAGGUUGGUAAUGAGAGCUGAGAAGGUACAUGAGGAUCACCCAUGUUAGUU [JL Zatite mod 6] (puzzle: Exclusion 4) | 26.7 |  |  | 

Sequence | apparent KD of MS2 coat protein [1] [nM] | apparent KD of MS2 coat protein (input ligand: FMN 200 uM) [nM] | apparent KD of MS2 coat protein (input ligand: none) [nM] | also measured
CCUCAGUAAGGAUAUCAGCUUAUAGAGUUGGUAAUGAGAGCUGAGAAGGUACAUGAGGAUCACCCAUGUUAGUU [JL Zatite mod 3] (puzzle: Exclusion 4) | 23.5 |  |  | 
CCUCCCGCCGUCAGGAUAUGCCGUACCGCUGCGCUACAGAAGGCACUUGAGGAUCACCCAAGUACCCGUGAGGC [salish99_bmod_ex4_r4_010] (Eterna round: R97, puzzle: Brourd's mod of Exclusion 4) |  | 16.5 | 15.7 | 
CCUCGACAUGAGGAUCACCCAUGUGAGGAUAUGACCUUAAAAGCGUGAGCAGUUUCUAUCAGAAGGCGCGUAGG [salish99_ex1_r4_071] (Eterna round: R97, puzzle: Exclusion 1) |  | 15.9 | 16 | 
CCUCUACAUGAGGAUCACCCAUGUGAGGAUAUCAAAGCCGAAGCAAAUCUCCGGCCCAUGAGAAGGUGCAUGGA [EX1 A.9] (Eterna round: R97, puzzle: Exclusion 1) |  | 87.4 | 19.5 | 
CCUCUGUUAGGAUAUGGCAAAGAUGAGACACACCGACAUUGUUAGAAGGGACAUGAGGAUCACCCAUGUCAGCG [Eternabot (L1) Solution 57] (Eterna round: R97, puzzle: Exclusion 4) |  | 22.8 | 21.4 | 
CCUCUUGGGCAAGGAUAUCCUGCGCGGUUCCGGCUCGUGUCUGUCACAUGAGGAUCACCCAUGUGGGAGAAGGUGCCUGCGGUC [Design 79] (Eterna round: R96, puzzle: Exclusion NG 2) |  | 16.3 | 16.5 | apparent KD of MS2 coat protein [4]: 11.8 nM
CCUGAGGUUUGGUAGAAAACAUGAGGAUCACCCAUGUAUGUGCAGGAUAUCGACCGGCUCGCUGCCGAGAAGGGCAUCUACAUA [Eternabot solution 31] (Eterna round: R96, puzzle: Exclusion NG 3) |  | 45.4 | 36.9 | apparent KD of MS2 coat protein [4]: 24.8 nM
CCUGUGCUAUAGGAUAUGGCUUAGCAAUAUGCGCCAGAAGGAUAGACAUGAGGAUCACCCAUGUACGACGAAGC [Eternabot (L2) Solution 65] (Eterna round: R97, puzzle: Exclusion 6) |  | 35.9 | 24.3 | 
CCUUGACAUGAGGAUCACCCAUGUGAGGAUAUAGAAUACAUCAUACACUGACCUCCUUCUAGAAGGCACAUCUC [1986#2] (Eterna round: R97, puzzle: Exclusion 1) |  | 14.1 | 15.3 | 
CCUUUGUCAGGAUAUCAGAACACGCUCCUAGGGAGCGCAAAUGAGAAGGGACAUGAGGAUCACCCAUGUAAAGA [Arisesat] (puzzle: Exclusion 4) | 41.6 |  |  | apparent KD of MS2 coat protein [2]: 318 nM; apparent KD of MS2 coat protein [3]: 54.8 nM
CGAAGUAGAAACCGAUCCUACAUGAGGAUCACCCAUGUAGCAAGACGUGCACGCGAAGCUCGUCAGACUACCAGAAU [salish99_TOv1_r3_015] (puzzle: Sensor v3, turn-off variant 1) | 257 |  |  | apparent KD of MS2 coat protein [2]: 212 nM; apparent KD of MS2 coat protein [3]: 430 nM
CGACAGGGAGGAUAUACAUGAGGAUCACCCAUGUUCAAGCGUCCUUGAACUACCUCUGGUAGAAGGCCCUAAAG [jl-ex3-4.67 ViennaUCT mod] (Eterna round: R97, puzzle: Exclusion 3) |  | 44.6 | 123 | 
CGACUGUGAGGAUAUGGUGAGUAGUGCCUGAGCGCUGCUCACCAGAAGGCACAUGAGGAUCACCCAUGUAUGAC [Mat - Exclusion 4 - Mod of JL - D8] (puzzle: Exclusion 4) | 72.8 |  |  | 
CGAGCUGCUGUGAGGAUAUACCUAUGGAUACGUGGGUAGAAGGCACAUGAGGAUCACCCAUGUCCUGCAGCUCG [salish99_bmx4_r4_102] (Eterna round: R97, puzzle: Brourd's mod of Exclusion 4) |  | 313 | 51.7 | 
CGAGUGUAAGGAUAUUCGGCACCAGAGAACGAUCUGGCGUAGAAGAAGGUACAUGAGGAUCACCCAUGUGGUUA [Atonte] (puzzle: Exclusion 4) | 114 |  |  | 
CGAUAAUCCAAGGAUAUGCUAGACGAAAGUCUAGCAGAAGGUGGAACAUGAGGAUCACCCAUGUGUCCAAAUCG [Mat - Exclusion 6 - Eli Mod - D27] (Eterna round: R97, puzzle: Exclusion 6) |  | 22.2 | 14.7 | 
